Data reported in publication PMC9808001 (2022).

Target: RAB1A (Homo sapiens (Human), UniProt P62820)
Assay: BLI

Sequence of RAB1A (P62820 6-177): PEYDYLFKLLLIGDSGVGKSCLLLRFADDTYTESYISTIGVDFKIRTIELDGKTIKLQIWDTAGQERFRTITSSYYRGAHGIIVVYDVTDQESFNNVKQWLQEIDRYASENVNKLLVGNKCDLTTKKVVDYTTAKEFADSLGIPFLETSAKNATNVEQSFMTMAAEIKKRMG

B1: WDR44 (protein)
chain: VMGPQRPRSNSGRELTDEEILASVMIKNLDTGEEIPLSLAEEKLPTGINPLTLHIM
Kd: > 500 nM
